Assay results reported in patent US9188587.

Tests used:
[1] = biological target: I^125-αDTX-labelled VGKCs (Kv1 complexes) in digitonin-solubilised rabbit cortex extract
[2] = biological target: I^125-αDTX-labelled VGKCs (Kv1 complexes) in digitonin-solubilised rabbit cortex extract; remark: listed apart in the source

For “goat anti Lgi1 antibody (Santa Cruz C19 sc-9583 and N18 sc-9581)”, the percent of αDTX binding sites immunoprecipitated [1] was 61% and the percent of total I^125-αDTX binding sites precipitated [2] was > 60%.
